In publication doi:10.1101/804138:
One block for each substance: values may come before it.

What was measured:
[1] = target: His6-GapR1-76 (truncated protein lacking only the hydrophobic patch of Helix 3) (Caulobacter crescentus); assay: SEC + cross-linking
[2] = target: His6-GapR1-89 (full-length WT GapR), purified (Caulobacter crescentus); assay: SEC + cross-linking
[3] = target: His6-GapR1-69 (truncated protein lacking the entire Helix 3) (Caulobacter crescentus); assay: SEC + cross-linking
[4] = target: untagged GapR1-89 (Caulobacter crescentus)

- stoichiometry N [1]: 2
Substance: His6-GapR1-76 (truncated protein lacking only the hydrophobic patch of Helix 3) (domain or fragment)

- stoichiometry N [2]: 4
Substance: His6-GapR1-89 (full-length WT GapR), purified (natural protein)

- stoichiometry N [3]: 2
Substance: His6-GapR1-69 (truncated protein lacking the entire Helix 3) (domain or fragment)

- stoichiometry N [4]: 4
Substance: untagged GapR1-89 (natural protein)
